Assay results as given in paper PMC10148881 (2023).
Several values for one entry are separate records, joined by “and”; a condition that tells them apart may be missing. Equal entries are not always repeated. Where two headings read alike, the source gives them in different places. Ends that are not written are not given here.

B1: Pirh2 NTD + RING (residues 1–189) (domain or fragment)
chain: MAATAREDGASGQERGQRGCEHYDRGCLLKAPCCDKLYTCRLCHDNNEDHQLDRFKVKEVQCINCEKIQHAQQTCEECSTLFGEYYCDICHLFDKDKKQYHCENCGICRIGPKEDFFHCLKCNLCLAMNLQGRHKCIENVSRQNCPICLEDIHTSRVVAHVLPCGHLLHRTCYEEMLKEGYRCPLCMHS

How the values were obtained:
Assay in all cases: ITC
Pirh2 I107D = target: T1, Pirh2 I107D (Homo sapiens)
T1 chain: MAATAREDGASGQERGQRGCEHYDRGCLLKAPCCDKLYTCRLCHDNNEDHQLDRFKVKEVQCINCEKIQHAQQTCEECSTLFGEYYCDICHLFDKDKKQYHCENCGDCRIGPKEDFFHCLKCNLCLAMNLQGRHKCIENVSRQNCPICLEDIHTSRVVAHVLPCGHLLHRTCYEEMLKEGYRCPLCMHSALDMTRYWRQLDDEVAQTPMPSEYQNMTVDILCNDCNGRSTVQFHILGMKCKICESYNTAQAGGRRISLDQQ

[1] = target: polyAla/C-degron peptide containing four Ala residues
[2] = target: polyAla/C-degron peptide containing five Ala residues
unnamed = target: unnamed
[3] = target: B1
[4] = target: B1
[5] = target: T2, Pirh2 with Ile110 substituted with a negatively charged residue (human, UniProt Q96PM5 1-261)
T2 sequence (Q96PM5 whole entry, looked up) 1: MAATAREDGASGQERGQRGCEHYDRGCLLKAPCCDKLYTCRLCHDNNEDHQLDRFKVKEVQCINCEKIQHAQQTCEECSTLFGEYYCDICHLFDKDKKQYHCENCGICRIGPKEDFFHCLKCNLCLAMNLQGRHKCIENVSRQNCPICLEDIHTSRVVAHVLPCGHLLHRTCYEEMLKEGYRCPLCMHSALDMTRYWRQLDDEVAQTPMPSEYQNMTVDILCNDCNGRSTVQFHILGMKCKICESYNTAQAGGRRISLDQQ
T2 sequence (Q96PM5 whole entry, looked up) 2: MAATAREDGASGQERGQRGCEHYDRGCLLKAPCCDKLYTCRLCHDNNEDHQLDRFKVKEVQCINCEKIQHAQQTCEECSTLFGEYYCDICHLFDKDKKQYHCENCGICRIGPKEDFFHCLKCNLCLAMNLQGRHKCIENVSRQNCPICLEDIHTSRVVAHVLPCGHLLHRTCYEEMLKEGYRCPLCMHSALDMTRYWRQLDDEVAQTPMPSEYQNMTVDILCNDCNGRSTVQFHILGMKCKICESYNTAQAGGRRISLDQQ

[6] = target: B1

YKTSAAAAAA (not fully specified)
Kd (Pirh2 I107D): 9.1 µM

B1
Kd [1]: 7.4 µM
Kd [2]: 2500 nM
Kd (unnamed): 8.6 µM and 12 µM

YKTSAVAA
Kd [3]: 1900 nM

YKTSAAAAIA [Ala6/C-degron peptide with Ala-2 substituted with isoleucine]
Kd [3]: 13000 nM
Kd [4]: 10000 nM

YKTSAAVA
Kd [3]: 13000 nM

YKTSAAAIAA [Ala6/C-degron peptide with Ala-3 substituted with isoleucine]
Kd [3]: 2700 nM
Kd [4]: 1500 nM

YKTSATAAAA [Ala6/C-degron peptide with the threonine mutation of Ala-5]
Kd [3]: 500 nM

YKTSAAAKAA [Ala6/C-degron peptide with Ala-3 substituted with lysine]
Kd [4]: 2100 nM

YKTSTAAAAA [Ala6/C-degron peptide with the threonine mutation of Ala-6]
Kd [3]: 500 nM

YKTSAASA
Kd [3]: 20000 nM

YKTSAASAAA [Ala6/C-degron peptide with Ala-4 substituted with serine]
Kd [3]: 4500 nM

YKTSAAAAAA
Kd [5]: 40 µM

YKTSAAAPAA [Ala6/C-degron peptide with Ala-3 substituted with proline]
Kd [3]: 900 nM
Kd [4]: 500 nM

YKTSAAAAAG [Ala6/C-degron peptide with Ala-1 replaced with glycine]
Kd [3]: 23000 nM

YKTSAAATAA [Ala6/C-degron peptide with the threonine mutation of Ala-3]
Kd [3]: 700 nM

YKTSAAGA
Kd [3]: 22000 nM

AAAAAA
Kd [6]: 900 nM

YKTSAGAA
Kd [3]: 2300 nM

YKTSPAAA [Ala6/C-degron peptide with Ala-4 substituted with proline]
Kd [3]: 57000 nM

YKTSASAA
Kd [3]: 3000 nM

YKTSAAAA
Kd [3]: 800 nM

YKTSAAA [three-Ala peptide]
Kd [6]: > 100000 nM

YKTSAAPA
Kd [3]: 26000 nM
